# B1: ORF3a protein (SARS-CoV-2), P0DTC3 (parent)
# chain: MDLFMRIFTIGTVTLKQGEIKDATPSDFVRATATIPIQASLPFGWLIVGVALLAVFQSASKIITLKKRWQLALSKGVHFVCNLLLLFVTVYSHLLLVAAGLEAPFLYLYALVYFLQSINFVRIIMRLWLCWKCRSKNPLLYDANYFLCWHTNCYDYCIPYNSVTSSIVITSGDGTTSPISEHDYQIGGYTEKWESGVKDCVVLHSYFTSDYYQLYSTQLSTDTGVEHVTFFIYNKIVDEPEEHVQIHTIDGSSGVVNPVMEPIYDEPTTTTSVPL
# partner: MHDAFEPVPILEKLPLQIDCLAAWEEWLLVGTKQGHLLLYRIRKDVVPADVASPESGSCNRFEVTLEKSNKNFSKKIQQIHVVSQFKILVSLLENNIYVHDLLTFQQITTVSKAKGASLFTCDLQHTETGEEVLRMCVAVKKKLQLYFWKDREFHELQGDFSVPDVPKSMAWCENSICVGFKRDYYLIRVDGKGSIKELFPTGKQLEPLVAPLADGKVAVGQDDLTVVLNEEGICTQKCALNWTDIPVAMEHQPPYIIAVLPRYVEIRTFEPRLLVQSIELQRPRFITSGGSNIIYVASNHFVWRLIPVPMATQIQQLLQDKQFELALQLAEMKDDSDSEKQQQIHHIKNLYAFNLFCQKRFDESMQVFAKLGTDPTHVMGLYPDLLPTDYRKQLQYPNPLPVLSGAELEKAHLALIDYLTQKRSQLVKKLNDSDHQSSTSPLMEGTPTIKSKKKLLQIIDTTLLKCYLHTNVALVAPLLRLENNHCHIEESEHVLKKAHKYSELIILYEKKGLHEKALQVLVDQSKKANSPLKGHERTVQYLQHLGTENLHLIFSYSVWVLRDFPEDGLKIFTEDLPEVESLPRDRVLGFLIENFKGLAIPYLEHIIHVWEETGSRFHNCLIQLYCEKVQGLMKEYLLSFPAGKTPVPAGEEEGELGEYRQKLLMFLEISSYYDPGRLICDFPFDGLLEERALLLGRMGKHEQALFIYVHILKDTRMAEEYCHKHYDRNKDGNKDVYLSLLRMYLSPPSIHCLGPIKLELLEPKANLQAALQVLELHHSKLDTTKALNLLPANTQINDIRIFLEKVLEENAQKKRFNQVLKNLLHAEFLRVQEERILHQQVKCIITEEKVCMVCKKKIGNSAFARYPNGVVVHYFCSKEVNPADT
# Variants of: B1
# Conditions: with vps39_human VPS39, Q96JC1
row,Variant,effect of a mutation on the interaction
1,Y160A,disrupting interaction strength

# Source: IntAct's records for PubMed 33947832
